{
  "source": "the supplement of paper PMC10567573",
  "parents": {"B1": {"name": "TOR1AIP2 (parent)", "chain": "SPGHSSAGQEGEDTLRRRLLAPEA"}},
  "data": [
    {"variants_of": "B1", "test": "protein stability index of a GFP-peptide fusion (GPS, HEK-293T) (PSI 1-6); higher = more stable", "conditions": "c terminus: a fixed tail appended", "values": [
      {"variant": "SPGHSSAGQEGEMTLRRRLLAPEA", "note": "[D13M]", "protein stability index": 3.06},
      {"variant": "SPGHSSAGQEGECTLRRRLLAPEA", "note": "[D13C]", "protein stability index": 4.05},
      {"variant": "SPGHSSAGQEGEKTLRRRLLAPEA", "note": "[D13K]", "protein stability index": 4.52},
      {"variant": "SPGHSSAGQEGETTLRRRLLAPEA", "note": "[D13T]", "protein stability index": 3.65},
      {"variant": "SPGHSSAGQEGEITLRRRLLAPEA", "note": "[D13I]", "protein stability index": 3.88},
      {"variant": "SPGHSSAGQEGEETLRRRLLAPEA", "note": "[D13E]", "protein stability index": 4.73},
      {"variant": "SPGHSSAGQEGENTLRRRLLAPEA", "note": "[D13N]", "protein stability index": 4.27},
      {"variant": "SPGHSSAGQEGERTLRRRLLAPEA", "note": "[D13R]", "protein stability index": 3.32},
      {"variant": "SPGHSSAGQEGESTLRRRLLAPEA", "note": "[D13S]", "protein stability index": 3.67},
      {"variant": "SPGHSSAGQEGEHTLRRRLLAPEA", "note": "[D13H]", "protein stability index": 4.31},
      {"variant": "SPGHSSAGQEGEYTLRRRLLAPEA", "note": "[D13Y]", "protein stability index": 2.8},
      {"variant": "SPGHSSAGQEGEQTLRRRLLAPEA", "note": "[D13Q]", "protein stability index": 4.09},
      {"variant": "SPGHSSAGQEGEWTLRRRLLAPEA", "note": "[D13W]", "protein stability index": 2.96},
      {"variant": "SPGHSSAGQEGEFTLRRRLLAPEA", "note": "[D13F]", "protein stability index": 3.02},
      {"variant": "SPGHSSAGQEGEGTLRRRLLAPEA", "note": "[D13G]", "protein stability index": 4.1},
      {"variant": "SPGHSSAGQEGEATLRRRLLAPEA", "note": "[D13A]", "protein stability index": 3.19},
      {"variant": "SPGHSSAGQEGELTLRRRLLAPEA", "note": "[D13L]", "protein stability index": 3.77},
      {"variant": "SPGHSSAGQEGEVTLRRRLLAPEA", "note": "[D13V]", "protein stability index": 4.15},
      {"variant": "SPGHSSAGQEGEPTLRRRLLAPEA", "note": "[D13P]", "protein stability index": 4.53},
      {"variant": "SPGHSSAGQEGEDTKRRRLLAPEA", "note": "[L15K]", "protein stability index": 4.96},
      {"variant": "SPGHSSAGQEGEDTCRRRLLAPEA", "note": "[L15C]", "protein stability index": 3.98},
      {"variant": "SPGHSSAGQEGEDTERRRLLAPEA", "note": "[L15E]", "protein stability index": 5.35},
      {"variant": "SPGHSSAGQEGEDTARRRLLAPEA", "note": "[L15A]", "protein stability index": 5.47},
      {"variant": "SPGHSSAGQEGEDTHRRRLLAPEA", "note": "[L15H]", "protein stability index": 5.13},
      {"variant": "SPGHSSAGQEGEDTFRRRLLAPEA", "note": "[L15F]", "protein stability index": 4.3},
      {"variant": "SPGHSSAGQEGEDTGRRRLLAPEA", "note": "[L15G]", "protein stability index": 5.44},
      {"variant": "SPGHSSAGQEGEDTIRRRLLAPEA", "note": "[L15I]", "protein stability index": 4.53},
      {"variant": "SPGHSSAGQEGEDTDRRRLLAPEA", "note": "[L15D]", "protein stability index": 5.7},
      {"variant": "SPGHSSAGQEGGDTLRRRLLAPEA", "note": "[E12G]", "protein stability index": 3.73},
      {"variant": "SPGHSSAGQEGLDTLRRRLLAPEA", "note": "[E12L]", "protein stability index": 3.33},
      {"variant": "SPGHSSAGQEGCDTLRRRLLAPEA", "note": "[E12C]", "protein stability index": 4},
      {"variant": "SPGHSSAGQEGVDTLRRRLLAPEA", "note": "[E12V]", "protein stability index": 3.22},
      {"variant": "SPGHSSAGQEGFDTLRRRLLAPEA", "note": "[E12F]", "protein stability index": 3.1},
      {"variant": "SPGHSSAGQEGSDTLRRRLLAPEA", "note": "[E12S]", "protein stability index": 3.3},
      {"variant": "SPGHSSAGQEGYDTLRRRLLAPEA", "note": "[E12Y]", "protein stability index": 3.22},
      {"variant": "SPGHSSAGQEGKDTLRRRLLAPEA", "note": "[E12K]", "protein stability index": 3.98},
      {"variant": "SPGHSSAGQEGRDTLRRRLLAPEA", "note": "[E12R]", "protein stability index": 3.84},
      {"variant": "SPGHSSAGQEGQDTLRRRLLAPEA", "note": "[E12Q]", "protein stability index": 3.38},
      {"variant": "SPGHSSAGQEGWDTLRRRLLAPEA", "note": "[E12W]", "protein stability index": 3.19},
      {"variant": "SPGHSSAGQEGTDTLRRRLLAPEA", "note": "[E12T]", "protein stability index": 3.6},
      {"variant": "SPGHSSAGQEGNDTLRRRLLAPEA", "note": "[E12N]", "protein stability index": 3.81},
      {"variant": "SPGHSSAGQEGADTLRRRLLAPEA", "note": "[E12A]", "protein stability index": 3.48},
      {"variant": "SPGHSSAGQEGPDTLRRRLLAPEA", "note": "[E12P]", "protein stability index": 3.59},
      {"variant": "SPGHSSAGQEGMDTLRRRLLAPEA", "note": "[E12M]", "protein stability index": 3.53},
      {"variant": "SPGHSSAGQEGHDTLRRRLLAPEA", "note": "[E12H]", "protein stability index": 3.73},
      {"variant": "SPGHSSAGQEGDDTLRRRLLAPEA", "note": "[E12D]", "protein stability index": 3.97},
      {"variant": "SPGHSSAGQEGIDTLRRRLLAPEA", "note": "[E12I]", "protein stability index": 3.73},
      {"variant": "SPGHSSAGQEEEDTLRRRLLAPEA", "note": "[G11E]", "protein stability index": 4.6},
      {"variant": "SPGHSSAGQEFEDTLRRRLLAPEA", "note": "[G11F]", "protein stability index": 3.49},
      {"variant": "SPGHSSAGQEAEDTLRRRLLAPEA", "note": "[G11A]", "protein stability index": 4},
      {"variant": "SPGHSSAGQESEDTLRRRLLAPEA", "note": "[G11S]", "protein stability index": 4.48},
      {"variant": "SPGHSSAGQETEDTLRRRLLAPEA", "note": "[G11T]", "protein stability index": 4.62},
      {"variant": "SPGHSSAGQEQEDTLRRRLLAPEA", "note": "[G11Q]", "protein stability index": 4.38},
      {"variant": "SPGHSSAGQEYEDTLRRRLLAPEA", "note": "[G11Y]", "protein stability index": 3.39},
      {"variant": "SPGHSSAGQEWEDTLRRRLLAPEA", "note": "[G11W]", "protein stability index": 3.6},
      {"variant": "SPGHSSAGQEMEDTLRRRLLAPEA", "note": "[G11M]", "protein stability index": 4.15},
      {"variant": "SPGHSSAGQELEDTLRRRLLAPEA", "note": "[G11L]", "protein stability index": 4.13},
      {"variant": "SPGHSSAGQEIEDTLRRRLLAPEA", "note": "[G11I]", "protein stability index": 3.82},
      {"variant": "SPGHSSAGQEVEDTLRRRLLAPEA", "note": "[G11V]", "protein stability index": 4.04},
      {"variant": "SPGHSSAGQEDEDTLRRRLLAPEA", "note": "[G11D]", "protein stability index": 4.64},
      {"variant": "SPGHSSAGQEPEDTLRRRLLAPEA", "note": "[G11P]", "protein stability index": 4.05},
      {"variant": "SPGHSSAGQECEDTLRRRLLAPEA", "note": "[G11C]", "protein stability index": 3.88},
      {"variant": "SPGHSSAGQEREDTLRRRLLAPEA", "note": "[G11R]", "protein stability index": 4.64},
      {"variant": "SPGHSSAGQEKEDTLRRRLLAPEA", "note": "[G11K]", "protein stability index": 4.5},
      {"variant": "SPGHSSAGQENEDTLRRRLLAPEA", "note": "[G11N]", "protein stability index": 4.46},
      {"variant": "SPGHSSAGQEHEDTLRRRLLAPEA", "note": "[G11H]", "protein stability index": 4.07},
      {"variant": "SPGHSSAGQYGEDTLRRRLLAPEA", "note": "[E10Y]", "protein stability index": 3.51},
      {"variant": "SPGHSSAGQWGEDTLRRRLLAPEA", "note": "[E10W]", "protein stability index": 3.42},
      {"variant": "SPGHSSAGQQGEDTLRRRLLAPEA", "note": "[E10Q]", "protein stability index": 3.88},
      {"variant": "SPGHSSAGQRGEDTLRRRLLAPEA", "note": "[E10R]", "protein stability index": 3.62},
      {"variant": "SPGHSSAGQSGEDTLRRRLLAPEA", "note": "[E10S]", "protein stability index": 4.06},
      {"variant": "SPGHSSAGQVGEDTLRRRLLAPEA", "note": "[E10V]", "protein stability index": 4.04},
      {"variant": "SPGHSSAGQPGEDTLRRRLLAPEA", "note": "[E10P]", "protein stability index": 3.94},
      {"variant": "SPGHSSAGQNGEDTLRRRLLAPEA", "note": "[E10N]", "protein stability index": 3.72},
      {"variant": "SPGHSSAGQTGEDTLRRRLLAPEA", "note": "[E10T]", "protein stability index": 3.81},
      {"variant": "SPGHSSAGQEGEDWLRRRLLAPEA", "note": "[T14W]", "protein stability index": 4.5},
      {"variant": "SPGHSSAGQEGEDALRRRLLAPEA", "note": "[T14A]", "protein stability index": 4.06},
      {"variant": "SPGHSSAGQEGEDELRRRLLAPEA", "note": "[T14E]", "protein stability index": 4.4},
      {"variant": "SPGHSSAGQEGEDDLRRRLLAPEA", "note": "[T14D]", "protein stability index": 4.18},
      {"variant": "SPGHSSAGQEGEDCLRRRLLAPEA", "note": "[T14C]", "protein stability index": 2.67},
      {"variant": "SPGHSSAGQEGEDHLRRRLLAPEA", "note": "[T14H]", "protein stability index": 4.33},
      {"variant": "SPGHSSAGQEGEDFLRRRLLAPEA", "note": "[T14F]", "protein stability index": 4.39},
      {"variant": "SPGHSSAGQEGEDSLRRRLLAPEA", "note": "[T14S]", "protein stability index": 3.08},
      {"variant": "SPGHSSAGQEGEDYLRRRLLAPEA", "note": "[T14Y]", "protein stability index": 4.2},
      {"variant": "SPGHSSAGQEGEDILRRRLLAPEA", "note": "[T14I]", "protein stability index": 4.42},
      {"variant": "SPGHSSAGQEGEDPLRRRLLAPEA", "note": "[T14P]", "protein stability index": 4.33},
      {"variant": "SPGHSSAGQEGEDQLRRRLLAPEA", "note": "[T14Q]", "protein stability index": 4.11},
      {"variant": "SPGHSSAGQEGEDGLRRRLLAPEA", "note": "[T14G]", "protein stability index": 4.41},
      {"variant": "SPGHSSAGQEGEDKLRRRLLAPEA", "note": "[T14K]", "protein stability index": 4.94},
      {"variant": "SPGHSSAGQEGEDVLRRRLLAPEA", "note": "[T14V]", "protein stability index": 3.97},
      {"variant": "SPGHSSAGQEGEDMLRRRLLAPEA", "note": "[T14M]", "protein stability index": 4.34},
      {"variant": "SPGHSSAGQEGEDRLRRRLLAPEA", "note": "[T14R]", "protein stability index": 4.65},
      {"variant": "SPGHSSAGQEGEDLLRRRLLAPEA", "note": "[T14L]", "protein stability index": 4.84},
      {"variant": "SPGHSSAGQEGEDNLRRRLLAPEA", "note": "[T14N]", "protein stability index": 3.63}
    ]}
  ]
}
